Assay results from patent publication US20090311253A1 (AbbVie / Abbott, published 2009).

Experiments:
[1] = target: T1, Recombinant Human IL-13 (human, UniProt P35225 35-146, limits assumed); experiment: Biacore SPR
[2] = target: T2, Recombinant Human IL-4 (human, UniProt P05112 25-153); experiment: Biacore SPR
T2 sequence (looked up): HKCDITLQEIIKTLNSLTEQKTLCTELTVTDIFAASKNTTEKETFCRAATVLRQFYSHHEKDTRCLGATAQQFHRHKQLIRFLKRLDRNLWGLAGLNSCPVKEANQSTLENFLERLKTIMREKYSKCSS

[3] = target: T1, Recombinant Human IL-13; experiment: direct bind ELISA
[4] = target: T2, Recombinant Human IL-4; experiment: direct bind ELISA
[5] = target: T1, Recombinant Human IL-13; experiment: cell-based or functional assay
[6] = target: T2, Recombinant Human IL-4; experiment: cell-based or functional assay

T1 sequence (P35225 35-146 limits assumed): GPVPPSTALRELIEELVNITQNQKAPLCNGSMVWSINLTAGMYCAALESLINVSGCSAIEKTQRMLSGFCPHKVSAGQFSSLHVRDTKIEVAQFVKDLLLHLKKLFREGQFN

B1: DVD267 (bispecific antibody, human IgG1, kappa)
heavy: not shown
light: DIQMTQSPSSLSASVGDRVTISCRASQDIRNYLNWYQQKPGKAPKLLIFYTSKLHSGVPSRFSGSGSGTDYTLTISSLQPEDIATYYCQQGLTPPLTFGGGTKVEIKRTVAAPDIVLTQSPSSLSASVGDRVTITCKASQSVDYDGDSYMNWYQQKPGKAPKLLIYAASNLESGIPSRFSGSGSGTDFTFTISSLQPEDIATYYCQQSNEDPPTFGQGTKVEIKRTVAAPSVFIFPPSDEQLKSGTASVVCLLNNFYPREAKVQWKVDNALQSGNSQESVTEQDSKDSTYSLSSTLTLSKADYEKHKVYACEVTHQGLSSPVTKSFNRGEC
notes: outer AB051, inner AB027; vectors V1, V2
In the case of B1, the Kd [1] is reported as 0.0497 nM, the koff [1] is reported as 8.69e-05 s⁻¹ and the kon [1] is reported as 1.75e+06 M⁻¹ s⁻¹. For the same binder, the Kd [2] was 4.86 nM, the koff [2] was 0.000343 s⁻¹ and the kon [2] was 70600 M⁻¹ s⁻¹. For the same binder, the EC50 [3] was 5.89 nM, the EC50 [4] was 748 nM and the “IL-13 Neutralization Assay EC50 (A549 cells, hTARC)” value [5] was 0.09 nM. For the same binder, the “IL-4 Neutralization Assay EC50 (A549 cells, hTARC)” value [6] was 0.09 nM.
